Source: patent US20120264212

Tested on: T1, Dab2 N-terminal phosphotyrosine binding (N-PTB) domain, residues 1-241 of human Disabled-2, wild type
T1 sequence: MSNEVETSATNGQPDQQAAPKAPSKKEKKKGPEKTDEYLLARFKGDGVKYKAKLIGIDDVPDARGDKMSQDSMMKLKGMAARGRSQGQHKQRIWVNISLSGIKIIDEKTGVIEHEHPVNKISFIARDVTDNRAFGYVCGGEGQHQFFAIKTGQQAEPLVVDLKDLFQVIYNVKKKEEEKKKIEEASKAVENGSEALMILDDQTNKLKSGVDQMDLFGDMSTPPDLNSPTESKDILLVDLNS

In the case of thrombin, the “thrombin limited proteolysis (SDS-PAGE)” value was “thrombin cleaved the N-PTB domain leaving a ˜25 kDa protease-resistant product”.
